Data taken from the supplement of paper PMC10567573.
± gives the standard deviation.

Assay: protein stability index of a GFP-peptide fusion (GPS, HEK-293T) (PSI 1-6); higher = more stable
[1] = treatment: DMSO, c terminus: a fixed tail appended
[2] = treatment: MLN4924 1 uM, 8 h, c terminus: a fixed tail appended
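Also: 24-mer peptide tiles fused after GFP, lentivirally expressed, FACS-sorted into six equal bins by GFP/DsRed ratio, decoded by Illumina sequencing, PSI is the read-weighted mean bin number.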

Row | Sequence | protein stability index [1] | protein stability index [2] | protein stability index (treatment: DMSO, c terminus: native) | protein stability index (treatment: MLN4924 1 uM, 8 h, c terminus: native)
1 | LILSIIFIEGYCTPEEVIWEALNM [MAGEA10] | 3.32 ± 0.44 | 3.21 ± 0.79 | – | –
2 | ACRRRDALTGHLRTHSVIKEETNH [IKZF1] | 4.01 ± 0.76 | 3.76 ± 0.89 | – | –
3 | EVSSPPDTTEEVDHKPKLCRLAKG [PDZK1] | 5.11 ± 0.45 | – | – | –
4 | GKVLGKGGFAKCYEMTDLTNNKVY [PLK2] | 2.73 ± 0.11 | 2.87 ± 0.34 | – | –
5 | IVGWRCRVGQWVRMENVTVLGEDV [GMPPB] | 2.39 ± 0.61 | 2.15 ± 0.18 | – | –
6 | QRLLNTPRRKKLKSTSKYIYQTLF [GMCL1] | 2.08 ± 0.73 | 1.75 ± 0.46 | – | –
7 | KRITAHEALKHPWVCQRSTVASMM [CAMK2B] | 2.5 ± 0.39 | 2.51 ± 0.26 | – | –
8 | DSDFRELHTAREFSEEDEEETTSQ [RTN2] | 5.64 ± 0.17 | 5.5 ± 0.17 | – | –
9 | EQATSLAILRVIRLVRVFRIFKLS [KCNA1] | 2.42 ± 0.63 | 2.7 ± 0.26 | – | –
10 | FAPQTGARPSETFARFCKSQESAL [DNAAF3] | 2.5 ± 0.45 | 2.76 ± 0.52 | – | –
11 | SQSSASQPRLSYAEMAEDYPRYPD [CLCN6] | 4.83 ± 0.14 | 4.86 ± 0.13 | – | –
12 | RVIMIVTDGRPQDSVAEVAAKARD [MATN2] | 3.165 ± 0.024 | 2.76 ± 0.6 | – | –
13 | ENSHTNTEVLRNMGFAAKAMKSVH [CHMP4C] | 3.61 ± 0.28 | 3.77 ± 0.23 | – | –
14 | PRNSDMKNQGEENGFPDSTGDPLP [EDARADD] | 5.53 ± 0.26 | 5.36 ± 0.13 | – | –
15 | YVINWFMSFGPEIKLNTSQQGRNQ [FAM104B] | 2.67 ± 1.7 | 2.53 ± 0.71 | – | –
16 | FQKGQVTRDGFKLVMASLYHIYVA [HMOX1] | 2.83 ± 0.49 | 3.12 ± 0.97 | – | –
17 | KHSSTSSRIAKGGVDHTKMSLHGA [BTBD10] | 3.66 ± 0.19 | 3.79 ± 0.19 | – | –
18 | ASSSPVTLRQKTVDWRRVSRLQED [SLA] | 3.9 ± 0.36 | 3.77 ± 0.32 | – | –
19 | EKLCIYTDNSIKPQELLEWELVVL [CCND2] | 2.57 ± 0.58 | 2.62 ± 0.6 | – | –
20 | LTPSSKEMMSQALKATFSGFTKEQ [ETS1] | 3.87 ± 0.24 | 3.74 ± 0.19 | – | –
21 | AKQIMEETYKMEFMYSGVENKQVV [INTS4] | 2.23 ± 0.31 | 2.65 ± 0.61 | – | –
22 | DEAELDYLMDVLVGTQALERPPGP [SERTAD1] | 3.74 ± 0.35 | 3.87 ± 0.33 | – | –
23 | PEPEDEPGGPGAMTESLEASEFLE [RSPH3] | 5.7 ± 0.12 | 5.48 ± 0.2 | – | –

Row | Sequence | protein stability index [1] | protein stability index [2] | protein stability index (treatment: DMSO, c terminus: native) | protein stability index (treatment: MLN4924 1 uM, 8 h, c terminus: native)
24 | GIAILVGSNDRVQGVISQLEDTCK [TRIM55] | 2.3 ± 0.15 | 2.43 ± 0.37 | – | –
25 | ALRSHLKSFSMANGLNARMMHGGS [RAB40B] | 2.71 ± 0.38 | 2.5 ± 0.62 | – | –
26 | RRHPQGAWKELDRNYLNYGEEGAP [CHGB] | 4.05 ± 0.28 | 4.1 ± 0.34 | – | –
27 | SRCRKLVEYFQQSAVAMYMLYEKQ [ZBED1] | 2.44 ± 0.65 | 2.13 ± 0.22 | – | –
28 | KSVQCGTWTKHAEGGIFTSPNYPS [NETO1] | 2.88 ± 0.19 | 2.89 ± 0.24 | – | –
29 | EDDALSDKHGCPAYVSPEILNTTG [TRIB1] | 4.97 ± 0.24 | 4.95 ± 0.072 | – | –
30 | LMCGGIAFWSLVTLGSSFIPGEHF [SPNS1] | 3.21 ± 0.64 | 3.18 ± 0.21 | – | –
31 | DSAQVARLWGIRKNRPAMNYDKLS [SPDEF] | 3.24 ± 0.22 | 3.35 ± 0.23 | – | –
32 | LDQKKQDPRVQDFLQRCLESPFSR [NET1] | 3.51 ± 0.18 | 3.55 ± 0.44 | – | –
33 | PAATWNLEEKRLTWRLPDVSEAGG [FCHO1] | 4.49 ± 0.24 | 4.58 ± 0.25 | – | –
34 | GKEVKVNWATTPSSQKKDTSSSTV [TIA1] | 4.76 ± 0.21 | 4.92 ± 0.36 | – | –
35 | KRSWEEHVTHWMGQPFNSDDRNTA [DLC1] | 3.12 ± 0.47 | 3.52 ± 0.52 | – | –
36 | TTSEEAVGGATLAQTTSEAAMEGA [HDAC6] | 5.59 ± 0.34 | 5.43 ± 0.31 | – | –
37 | FSPDGPSRFRKAYKPEQPLVRLRG [LOXL2] | 2.5 ± 0.58 | 3.39 ± 0.68 | – | –
38 | RFLLKETLNQLQSLQNSLECAMET [NECAB1] | 2.29 ± 0.4 | 2.31 ± 0.41 | – | –
39 | EAELRRRDTFYKEQLERIERKNAE [CHCHD6] | 5.1 ± 0.41 | 5.34 ± 0.28 | – | –
40 | WQLFGPFGAVTNVKVIRDFTTNKC [ELAVL3] | 2.36 ± 0.37 | 2.2 ± 0.26 | – | –
41 | RIATETDQIGSEIIEELGEQRDQL [VTI1B] | 5.38 ± 0.2 | 5.37 ± 0.14 | – | –
42 | GHSPARAGKQRMKEKEQENERKVA [DDIT3] | 5.39 ± 0.4 | 5.43 ± 0.37 | – | –
43 | GALQIEQSEESDQGKYECVATNSA [PTPRD] | 5.18 ± 0.097 | 5.39 ± 0.31 | – | –
44 | VLGGRRLRRAWFSWPRASPASGAS [SCNN1D] | 2.89 ± 0.35 | 2.86 ± 0.39 | – | –
45 | EEKSKQFLDLMETIDKQREEMAKS [LRRC45] | 5.28 ± 0.25 | 5.3 ± 0.16 | – | –
46 | RLALEKVPKVGQRFNRIGLPPKVG [PI4K2A] | 3.23 ± 0.3 | 3.21 ± 0.097 | – | –

Row | Sequence | protein stability index [1] | protein stability index [2] | protein stability index (treatment: DMSO, c terminus: native) | protein stability index (treatment: MLN4924 1 uM, 8 h, c terminus: native)
47 | PHGQYGGHHQGMPGYLPGAMPPYG [ZNF207] | 2.93 ± 0.33 | 3.09 ± 0.41 | – | –
48 | MAEGDNRSTNLLAAETASLEEQLQ [ARL6IP1] | 5.37 ± 0.31 | 5.43 ± 0.17 | – | –
49 | RAVRDRNLLRDDRVLQNLLTIEER [CCND2] | 3.91 ± 0.21 | 3.89 ± 0.17 | – | –
50 | KKAEQKKKEKIIEDKTFGLKNKKG [ZC3H15] | 4.8 ± 0.31 | 4.92 ± 0.1 | – | –
51 | TQGLPWRFEELLTCSHWPSFFPS [TEX19] | – | – | 2.78 ± 0.46 | 2.24 ± 0.87
52 | REVSSYPSTVGAEAQEEFLRVLGS [DFFB] | 4.33 ± 0.22 | 4.23 ± 0.16 | – | –
53 | EDSVSRLEKEIEVLERGDSAPATA [PALM] | 5.49 ± 0.23 | 5.47 ± 0.18 | – | –
54 | NEKITMQNLNDRLASYLEKVRALE [KRT13] | 2.86 ± 0.4 | 3 ± 0.32 | – | –
55 | KKRMRYFDPLRNEYFFDRNRPSFD [KCNA1] | 2.47 ± 0.44 | 2.83 ± 0.19 | – | –
56 | NLDANLAFASFTSGVVRIWDLRDQ [TLE6] | 2.3 ± 0.28 | 2.36 ± 0.33 | – | –
57 | AQRRRMDEISDHAKVLTLSDDLER [EIF5] | 4.98 ± 0.26 | 5.04 ± 0.22 | – | –
58 | GQGLKSYMTKPSKSLLPHLKTGNS [RTP4] | 3.62 ± 0.16 | 3.63 ± 0.25 | – | –
59 | RLSKELLAEYQDLTFLTKQEILLA [CIB1] | 2.16 ± 0.17 | 2.11 ± 0.22 | – | –
60 | RGFCAFLGSWLVPFAYLTVLDLSK [POMT2] | 3.24 ± 0.7 | 3.16 ± 0.25 | – | –
61 | SWSAGLHNRYTENSLRGVILDIHF [FUT8] | 2.88 ± 0.67 | 2.86 ± 0.73 | – | –
62 | QTSSSTFGGGSTRGGSLLAGGGGF [KRT15] | 3.57 ± 0.17 | 3.7 ± 0.23 | – | –
63 | KVLQGGEQEIQFEDFTNTLRELGH [PKD2L1] | 3.08 ± 0.35 | 3.31 ± 0.23 | – | –
64 | HKESKMTIFEKENFIGRQWEISDD [CRYBA1] | 4.13 ± 0.4 | 4.07 ± 0.3 | – | –
65 | VDPIGHVYIFATCLGLSYDGLLGD [MAGEA6] | 3.17 ± 0.45 | 3.1 ± 0.29 | – | –
66 | LSPEVLRKDPYGKPVDMWACGVIL [CAMK2D] | 2.74 ± 0.55 | 2.14 ± 0.71 | – | –
67 | SDDNAKLPCFNGRVVSWLVSAEGS [DVL3] | 3.07 ± 0.19 | 3.06 ± 0.26 | – | –
68 | KRYDGLKYDVKKVEEVVYDLSIRG [TSN] | 3.33 ± 0.27 | 3.29 ± 0.094 | – | –
69 | RVSDVQKVLQGGEQEIQFEDFTNT [PKD2L1] | 4.8 ± 0.6 | 4.85 ± 0.36 | – | –

Row | Sequence | protein stability index [1] | protein stability index [2] | protein stability index (treatment: DMSO, c terminus: native) | protein stability index (treatment: MLN4924 1 uM, 8 h, c terminus: native)
70 | NGDDMFVTFAAMQAQQGRSSLVWL [MCOLN1] | 3.18 ± 0.54 | 2.83 ± 0.48 | – | –
71 | RHRLRWHSFQSSHRPSLNSVSLQI [DLC1] | 2.41 ± 0.1 | 2.58 ± 0.097 | – | –
72 | QVLVKDFTFEGFSRLRFLNLGRMI [ZER1] | 2.07 ± 0.22 | 2.08 ± 0.23 | – | –
73 | EPKLHTPMYFFLGNLSVLDVGCIS [OR3A1] | 2.7 ± 0.83 | 2.95 ± 0.71 | – | –
74 | IFRNLCQMQEDNSSFSLLLDLLSE [INTS3] | 2.61 ± 0.28 | 2.51 ± 0.37 | – | –
75 | KVEKMLISSIKEKYPSHSFIGEES [IMPA1] | 3.26 ± 0.2 | 3.17 ± 0.14 | – | –
76 | QAQMIHPKPADFRNPGPGRHRLIT [INTS4] | 3.94 ± 0.26 | 3.92 ± 0.24 | – | –
77 | LFIQKEEQLQQILKRKNKQAFLDE [MNAT1] | 2.5 ± 0.47 | 2.61 ± 0.32 | – | –
78 | RLWSLSYTKLPSSLQSTGKCLLYC [SLC25A39] | 2.78 ± 0.62 | 2.73 ± 0.52 | – | –
79 | SEADSEAGELRKPTQEEWRQVVDI [PPEF2] | 5.45 ± 0.15 | 5.46 ± 0.34 | – | –
80 | ADMLKQYFRDLPEPLMTNKLSETF [DLC1] | 2.71 ± 0.26 | 2.86 ± 0.22 | – | –
81 | SALTLACYKGHLEMVRFLLEAGAD [ANKRD17] | 3.08 ± 0.31 | 2.69 ± 0.24 | – | –
82 | EVRKLTQRLEEMTQRMEALENRLR [MATN2] | 2.57 ± 0.39 | 2.91 ± 0.4 | – | –
83 | CQSVLEDFNLCLFYLPSSPNLSLA [SMG5] | 2.5 ± 0.65 | 2.72 ± 0.63 | – | –
84 | HPGFKDNVYRKRRKYFADLAMNYK [TPH1] | 2.61 ± 0.23 | 3.01 ± 0.48 | – | –
85 | FTRKTLAEKKQELDKLRNEWASHT [SASS6] | 3.15 ± 0.47 | 3.77 ± 0.6 | – | –
86 | PAQPGADSSFPPALAEGYRYPELD [TBX6] | 5.14 ± 0.18 | 5.01 ± 0.36 | – | –
87 | PDFCHKFLPGYVGGIQEGAVTPAG [DHCR7] | 3.57 ± 0.32 | 3.6 ± 0.11 | – | –
88 | TEMAASSQGNFEGNFESLDLAEFA [FUNDC2] | 5.21 ± 0.42 | 5.1 ± 0.44 | – | –
89 | YQPAPYFAAEARYPIYVIPEPPPV [TENT5D] | 2.02 ± 0.18 | 2.35 ± 0.55 | – | –
